Results reported in the supplement of paper PMC12042874.
± gives the uncertainty stated by the source.

Assay: amyloid nucleation score (Sup35N fusion, yeast selection) (log enrichment); library NNK3; higher = more nucleation; inactive = no reads after selection
In short: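 The nucleation score, computed with DiMSum, is the log enrichment of output over input reads, centred on the mode score of non-aggregating sequences. Sequences with under 100 input reads were dropped. Reads were generated by Illumina sequencing of plasmid inserts from psi-negative yeast with Sup35N fused to peptides of 20 random codons, induced with 100 μM copper sulfate for 24 hours and grown 7 days at 30°C on medium lacking adenine and uracil.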
With LKDWVRYGVEIQAVSMGILV the amyloid nucleation score was 0.221 ± 0.16. In the case of LKEQSVQMAWP, the amyloid nucleation score is reported as “inactive”. In the case of LKFLLRNILVRYYMDVGPVS, the amyloid nucleation score is reported as “inactive”. With LKGTCFLIPYLVTSGSSLVS the amyloid nucleation score was “inactive”. With LKLWYPLSFIDVRAPRA the amyloid nucleation score was “inactive”. For LKNFIKWRGILPFFGTDFWM, the amyloid nucleation score was “inactive”. For LKNFKSSAHLMQMIVLNFAY, the amyloid nucleation score was “inactive”. For LKNSL, the amyloid nucleation score was “inactive”. In the case of LKPELIGMCGEGGLIAFRSQ, the amyloid nucleation score is reported as “inactive”. With LKSST the amyloid nucleation score was “inactive”. For LKYFQVRT, the amyloid nucleation score was “inactive”. Substance LLAGYPLWKPKTCQYMKPWL has an amyloid nucleation score of 0.125 ± 0.24. With LLAMRRIDWCSTPVTLILCR the amyloid nucleation score was “inactive”. For LLCLVAKRYGMGRLF, the amyloid nucleation score was “inactive”. In the case of LLDLDCYASLVSTTLEHMSG, the amyloid nucleation score is reported as “inactive”. For LLDVYLD, the amyloid nucleation score was “inactive”. With LLFEMWTWSTVSRRAGDVLS the amyloid nucleation score was “inactive”. For LLFRFMTGVVRLPRDNTYRK, the amyloid nucleation score was “inactive”. With LLGCAYTGSTFHGNVGSFVL the amyloid nucleation score was “inactive”. LLIDCYVDYSC showed an amyloid nucleation score of 0.105 ± 0.24. With LLIDNVCSNIARVMHKVWLW the amyloid nucleation score was “inactive”. With LLIKDYMHDHLGIILYTEEC the amyloid nucleation score was “inactive”. In the case of LLLIGINVKMFWSFRVWLCN, the amyloid nucleation score is reported as “inactive”. With LLLSLGVLCYP the amyloid nucleation score was “inactive”. For LLLWGTHHSMIYYDGCLIFI, the amyloid nucleation score was “inactive”. In the case of LLLYWRRTMVALRCTYFGLT, the amyloid nucleation score is reported as “inactive”. Substance LLNVTHSVAMTRTHGGVTYW has an amyloid nucleation score of 0.776 ± 0.17. For LLPKVLLP, the amyloid nucleation score was “inactive”. With LLSHYFHGMCMTHISGIFVM the amyloid nucleation score was “inactive”. LLSLAYVMRYI gave an amyloid nucleation score of 1.38 ± 0.068. In the case of LLSREERTAVLLCTETQ, the amyloid nucleation score is reported as “inactive”. In the case of LLTHRFVAGFHRKAHSCCDS, the amyloid nucleation score is reported as “inactive”. For LLVCDREVAFAVACSFPCKR, the amyloid nucleation score was “inactive”. In the case of LLVMWWYRLTGPDGVSNWR, the amyloid nucleation score is reported as “inactive”. For LLWCGFQDCEMKC, the amyloid nucleation score was “inactive”. For LLWYKLSELR, the amyloid nucleation score was “inactive”. With LLYQFSELQMASWNNKKKEL the amyloid nucleation score was “inactive”. With LLYSLWCEMMYPSKGARM the amyloid nucleation score was “inactive”. With LLYVKFIVPYTTM the amyloid nucleation score was “inactive”. LMASWTVRTYHGFSISENRN showed an amyloid nucleation score of 0.312 ± 0.26. With LMDDTVQMYR the amyloid nucleation score was “inactive”. For LMDPNGLVQGLFYMELLT, the amyloid nucleation score was “inactive”. Substance LMFNGILNQCSVMYLNRIYK has an amyloid nucleation score of 2.97 ± 0.081. In the case of LMFRTLFK, the amyloid nucleation score is reported as 0.062 ± 0.62. With LMKMHQCDSKVWNEMGDASN the amyloid nucleation score was “inactive”. For LMRSREEGAPSDRRSQAYED, the amyloid nucleation score was “inactive”. LMVMGVSSCLTFAIDILRNM gave an amyloid nucleation score of 1.13 ± 0.16. LMYTRGFLWGAWINACMSRG gave an amyloid nucleation score of 1.2 ± 0.15. With LNAEIL the amyloid nucleation score was “inactive”. In the case of LNATKSDCHSLLI, the amyloid nucleation score is reported as “inactive”. For LNCMQVYFICVTWFAC, the amyloid nucleation score was “inactive”. For LNCPSYPNVGPWNLEVTAFQ, the amyloid nucleation score was “inactive”. With LNFSHGSCGSFCGSIMIST the amyloid nucleation score was “inactive”. In the case of LNILVTC, the amyloid nucleation score is reported as “inactive”. In the case of LNKHSAYGTDLVYSRLKFVL, the amyloid nucleation score is reported as “inactive”. For LNLHSSLGMFASLGDMIRVT, the amyloid nucleation score was “inactive”. With LNLSYGM the amyloid nucleation score was “inactive”. With LNLWPNSD the amyloid nucleation score was “inactive”. Substance LNNSTSCEVGKNVCISFKWA has an amyloid nucleation score of 2.22 ± 0.089. For LNPNYRNAYLNYRVLFY, the amyloid nucleation score was “inactive”. With LNPTAYYVVPLVLALAWISH the amyloid nucleation score was “inactive”. With LNRVINYLIKLYFAGWVSHD the amyloid nucleation score was “inactive”. In the case of LNSTTCLTAGWIGNAFIACN, the amyloid nucleation score is reported as “inactive”. With LNTDESWGFMCLTKFE the amyloid nucleation score was “inactive”. In the case of LNTPPQVSMGSEGLSFNMSF, the amyloid nucleation score is reported as “inactive”. In the case of LNTRVGSFTNRLWSRMKEGG, the amyloid nucleation score is reported as “inactive”. LNWGLVTDSTFIWLMDTLRL showed an amyloid nucleation score of 1.05 ± 0.11. With LNWVKTYVAYLFFYSISKRC the amyloid nucleation score was “inactive”. Work on LPGSDRQFPREAVHYSRMRG yielded an amyloid nucleation score of 0.714 ± 0.32. With LPICDQTIWFLPSRAVAGNV the amyloid nucleation score was “inactive”. In the case of LPICVVMDKRFCTIVISSST, the amyloid nucleation score is reported as “inactive”. In the case of LPILHSRPVIQETL, the amyloid nucleation score is reported as “inactive”. In the case of LPSDSGYTGYHVWTLKSTCD, the amyloid nucleation score is reported as “inactive”. In the case of LPTSQA, the amyloid nucleation score is reported as “inactive”. In the case of LPWSINRCNRVENQLVYVWN, the amyloid nucleation score is reported as 1.1 ± 0.14. For LPYTGIYSRFRDRLWCVLKT, the amyloid nucleation score was “inactive”. In the case of LQAHCSNFWVFYMAFGPIDF, the amyloid nucleation score is reported as 1.76 ± 0.095. Substance LQCAHLFPV has an amyloid nucleation score of 0.931 ± 0.099. In the case of LQIPKPFAMKYTMFQRKQND, the amyloid nucleation score is reported as “inactive”. For LQRGTQVYRCSLSFVRNVRF, the amyloid nucleation score was “inactive”. With LQRPASEFSERGA the amyloid nucleation score was “inactive”. In the case of LQSRF, the amyloid nucleation score is reported as “inactive”. With LQSVMFLPICFLLT the amyloid nucleation score was “inactive”. For LQYHRLGQLPRQNRDTVLLL, the amyloid nucleation score was “inactive”. For LRCYDILLDA, the amyloid nucleation score was “inactive”. In the case of LREYFMFPRVHNLFNLV, the amyloid nucleation score is reported as “inactive”. For LRGCLKSVIDTSLG, the amyloid nucleation score was “inactive”. With LRGCVNAYLRYHTRGLVVLR the amyloid nucleation score was “inactive”. With LRGKDN the amyloid nucleation score was “inactive”. For LRIMSIYIEEALSIGHDNWF, the amyloid nucleation score was 0.205 ± 0.46. For LRKRRGPK, the amyloid nucleation score was “inactive”. In the case of LRKSLTEQPPKGLASRLYWS, the amyloid nucleation score is reported as “inactive”. With LRSFQWVIVTMPLTRIRSDK the amyloid nucleation score was “inactive”. In the case of LRSWPVLHSAISTND, the amyloid nucleation score is reported as “inactive”. With LRVILQLYIEGLIVQ the amyloid nucleation score was “inactive”. For LRVKNDVHGLLELGSVDVSI, the amyloid nucleation score was “inactive”. LRWSGFIGDAYGYLFKEWGQ gave an amyloid nucleation score of 0.145 ± 0.33. For LSASGYQSCSNVMMSTHVSN, the amyloid nucleation score was “inactive”. In the case of LSCDGNRGTVFVIRIFSGDV, the amyloid nucleation score is reported as 2.62 ± 0.078. In the case of LSDGSHLSECYGFT, the amyloid nucleation score is reported as “inactive”. In the case of LSDVDPEFLFLLLFFP, the amyloid nucleation score is reported as “inactive”. For LSDYIGAPFSSKSRDW, the amyloid nucleation score was “inactive”. For LSFAVKCFRIGDMNAFNTFI, the amyloid nucleation score was “inactive”. For LSFDVKASWV, the amyloid nucleation score was “inactive”. In the case of LSFQAMLVR, the amyloid nucleation score is reported as “inactive”. With LSFWVSYLGIVFLQNICEEW the amyloid nucleation score was “inactive”. LSGADTYRSTTRSYGGNDVV showed an amyloid nucleation score of -0.641 ± 1.1. For LSIYRFSCTNSRCLMDLFI, the amyloid nucleation score was “inactive”. With LSLAVKVIVKG the amyloid nucleation score was “inactive”. For LSNDQSDTMEKCRRSVTLW, the amyloid nucleation score was “inactive”. Work on LSNRGLIYHEGTRICATYRE yielded an amyloid nucleation score of 0.719 ± 0.22. In the case of LSQIEGWKCIGWVHYMVDSI, the amyloid nucleation score is reported as “inactive”. For LSRINSCRLMVQVQLSRT, the amyloid nucleation score was “inactive”. In the case of LSSGNGSFVRYI, the amyloid nucleation score is reported as “inactive”. With LSSMWWLVRFYNFAF the amyloid nucleation score was “inactive”. With LSTMN the amyloid nucleation score was “inactive”. With LSVCVRPWRNKTDVVGNGNK the amyloid nucleation score was “inactive”. In the case of LSVHTLHNG, the amyloid nucleation score is reported as “inactive”. In the case of LSVITVLNKKNRSDIMWIMI, the amyloid nucleation score is reported as “inactive”. With LSVSYTLALTALLRHRERVW the amyloid nucleation score was “inactive”. With LSWFIYWDKIRGWSKMTIGQ the amyloid nucleation score was “inactive”. In the case of LSWTYGRMGLRRLGGTGCYG, the amyloid nucleation score is reported as “inactive”. Work on LSYSIRLLIFVRR yielded an amyloid nucleation score of -0.293 ± 0.82. In the case of LTASYSFVTTVGYSGLDLKV, the amyloid nucleation score is reported as “inactive”. LTDRQVCNLIWNNAYGFLC gave an amyloid nucleation score of 0.257 ± 0.52. With LTKGLSAMLQFRWRAVFKNG the amyloid nucleation score was “inactive”. With LTKGQ the amyloid nucleation score was “inactive”. For LTLCNPPTTRRTNATFLHCL, the amyloid nucleation score was “inactive”. In the case of LTLSYKQERTTARGKPVYLR, the amyloid nucleation score is reported as “inactive”. With LTNTLAYTVRKKTFQIGLLC the amyloid nucleation score was “inactive”. For LTSPREMAWCPHDTAICGTT, the amyloid nucleation score was “inactive”. For LTSVMIFVLVRIELPNQTLS, the amyloid nucleation score was “inactive”. In the case of LTTESNLHVCVRRVGQLHLA, the amyloid nucleation score is reported as “inactive”. For LTYAALYLNGKMNVENARVV, the amyloid nucleation score was “inactive”. In the case of LTYGFFESNFGGCNRFCF, the amyloid nucleation score is reported as “inactive”. With LVAFATWYNGWWVPRENEFR the amyloid nucleation score was 0.033 ± 0.47. With LVALKSHDT the amyloid nucleation score was “inactive”. With LVCNRWPNCANCRCRP the amyloid nucleation score was “inactive”. For LVFSTSLH, the amyloid nucleation score was “inactive”. In the case of LVIVRWNAVYTYIGFDF, the amyloid nucleation score is reported as “inactive”. LVKIWDPSFNCFWMNGISNG gave an amyloid nucleation score of 1.01 ± 0.14. With LVKNITPNAA the amyloid nucleation score was “inactive”. In the case of LVLRFTSIDFKLFRRHST, the amyloid nucleation score is reported as “inactive”. For LVLVQEKHRSRTAEFDHRLT, the amyloid nucleation score was -0.186 ± 0.94. For LVLYCF, the amyloid nucleation score was “inactive”. For LVLYYCVTG, the amyloid nucleation score was “inactive”. In the case of LVMPYDMCCTRFQRAFSVCC, the amyloid nucleation score is reported as “inactive”. Substance LVPFSNGCQSGPLTLIWYVA has an amyloid nucleation score of 2.04 ± 0.068. In the case of LVRYLENIRLRS, the amyloid nucleation score is reported as “inactive”. LVVCTSAFIGMTDY showed an amyloid nucleation score of -0.532 ± 0.8. Substance LVVIWSRYSPRRNYPVTSNM has an amyloid nucleation score of 0.679 ± 0.24. With LVWDKVSVVWNSKEGVNVRI the amyloid nucleation score was 0.256 ± 0.22. For LVWRTSINSLRMVEDNRDEV, the amyloid nucleation score was “inactive”. For LVWWDGSEWTTWGVADIDWT, the amyloid nucleation score was “inactive”. LWLSDRNSLDSIAVCA gave an amyloid nucleation score of 1.24 ± 0.093. With LWPAAQLLLKRE the amyloid nucleation score was “inactive”. In the case of LWPWFNCLRGRCGRIVCGWR, the amyloid nucleation score is reported as “inactive”. In the case of LWRWKYRAILKRYEKERVGR, the amyloid nucleation score is reported as “inactive”. For LWTALK, the amyloid nucleation score was “inactive”.
